Earlier results on one substance are cited in PMC8869670.

This data set concerns the target Thioredoxin (Homo sapiens) (UniProt P10599).

Sequence of Thioredoxin (Homo sapiens) (P10599 2-105): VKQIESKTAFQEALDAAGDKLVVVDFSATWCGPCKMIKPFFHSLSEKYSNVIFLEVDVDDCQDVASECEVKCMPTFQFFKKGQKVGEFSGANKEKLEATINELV

One may read the Kd as a measure of binding affinity in units of concentration. Regarding p53 (from UniProt P04637), the Kd is 900 nM.
